{"source": "paper PMC12102759", "about": "(2025)", "parents": {"B1": {"name": "SH3BP2 peptide 410-425 (SH3 domain-binding protein 2), 16-mer library wild type / TNKS ANK (TNKS 12 ANK repeats, residues 174-649) (parent complex)", "chain 1": "LPHLQRSPPDGQSFRS", "chain 2": "TGVPAVSGALRELLEACRNGDVSRVKRLVDAANVNAKDMAGRKSSPLHFAAGFGRKDVVEHLLQMGANVHARDDGGLIPLHNACSFGHAEVVSLLLCQGADPNARDNWNYTPLHEAAIKGKIDVCIVLLQHGADPNIRNTDGKSALDLADPSAKAVLTGEYKKDELLEAARSGNEEKLMALLTPLNVNCHASDGRKSTPLHLAAGYNRVRIVQLLLQHGADVHAKDKGGLVPLHNACSYGHYEVTELLLKHGACVNAMDLWQFTPLHEAASKNRVEVCSLLLSHGADPTLVNCHGKSAVDMAPTPELRERLTYEFKGHSLLQAAREADLAKVKKTLALEIINFKQPQSHETALHCAVASLHPKRKQVTELLLRKGANVNEKNKDFMTPLHVAAERAHNDVMEVLHKHGAKMNALDTLGQTALHRAALAGHLQTCRLLLSYGSDPSIISLQGFTAAQMGNEAVQQILSESTPIRTSD"}, "B2": {"name": "AXIN1 peptide 235-250 (Axin-1), 16-mer library wild type / PP2A B56 (PPP2R5A B56 domain, residues 1-486) (parent complex)", "chain 1": "SGYLPTLNEDEEWKAD", "chain 2": "not shown"}}, "data": [{"variants_of": "B1", "assay": "proteomic peptide phage display deep mutational scan (ProP-PD DMS): M13 P8 16-mer library selected against immobilised GST-tagged bait for four days (rounds), NGS of the eluted pools per day and pseudo-replica; bait immobilised on MaxiSorp plates (10 µg), library pre-cleared on GST, 2 h binding at 4 °C, five washes; one round per day, days 1-4; value from days 2 and 3", "values": [{"variant": "chain 1 D10E", "screen value": "0.00381 average fractional NGS count over selection days 2 and 3 (reads of this peptide / all reads for the bait, averaged over …"}, {"variant": "chain 1 D10T", "screen value": "0.000156 average fractional NGS count over selection days 2 and 3 (reads of this peptide / all reads for the bait, averaged over …"}, {"variant": "chain 1 D10I", "screen value": "0.000221 average fractional NGS count over selection days 2 and 3 (reads of this peptide / all reads for the bait, averaged over …"}, {"variant": "chain 1 L1T", "screen value": "0.0011 average fractional NGS count over selection days 2 and 3 (reads of this peptide / all reads for the bait, averaged over …"}, {"variant": "chain 1 L1Q", "screen value": "0.00289 average fractional NGS count over selection days 2 and 3 (reads of this peptide / all reads for the bait, averaged over …"}, {"variant": "chain 1 L1R", "screen value": "0.000257 average fractional NGS count over selection days 2 and 3 (reads of this peptide / all reads for the bait, averaged over …"}, {"variant": "chain 1 L1P", "screen value": "0.000357 average fractional NGS count over selection days 2 and 3 (reads of this peptide / all reads for the bait, averaged over …"}, {"variant": "chain 1 L1W", "screen value": "0.000782 average fractional NGS count over selection days 2 and 3 (reads of this peptide / all reads for the bait, averaged over …"}, {"variant": "chain 1 L1G", "screen value": "0.000775 average fractional NGS count over selection days 2 and 3 (reads of this peptide / all reads for the bait, averaged over …"}, {"variant": "chain 1 L1M", "screen value": "0.00036 average fractional NGS count over selection days 2 and 3 (reads of this peptide / all reads for the bait, averaged over …"}, {"variant": "chain 1 R15M", "screen value": "0.00237 average fractional NGS count over selection days 2 and 3 (reads of this peptide / all reads for the bait, averaged over …"}, {"variant": "chain 1 R15N", "screen value": "0.000839 average fractional NGS count over selection days 2 and 3 (reads of this peptide / all reads for the bait, averaged over …"}, {"variant": "chain 1 R15V", "screen value": "0.00361 average fractional NGS count over selection days 2 and 3 (reads of this peptide / all reads for the bait, averaged over …"}, {"variant": "chain 1 S7E", "screen value": "0.00893 average fractional NGS count over selection days 2 and 3 (reads of this peptide / all reads for the bait, averaged over …"}, {"variant": "chain 1 S7P", "screen value": "0.00153 average fractional NGS count over selection days 2 and 3 (reads of this peptide / all reads for the bait, averaged over …"}, {"variant": "chain 1 S7T", "screen value": "0.00126 average fractional NGS count over selection days 2 and 3 (reads of this peptide / all reads for the bait, averaged over …"}, {"variant": "chain 1 S7I", "screen value": "0.000719 average fractional NGS count over selection days 2 and 3 (reads of this peptide / all reads for the bait, averaged over …"}, {"variant": "chain 1 S7K", "screen value": "0.00104 average fractional NGS count over selection days 2 and 3 (reads of this peptide / all reads for the bait, averaged over …"}, {"variant": "chain 1 S7D", "screen value": "0.000477 average fractional NGS count over selection days 2 and 3 (reads of this peptide / all reads for the bait, averaged over …"}, {"variant": "chain 1 S7L", "screen value": "0.00604 average fractional NGS count over selection days 2 and 3 (reads of this peptide / all reads for the bait, averaged over …"}, {"variant": "chain 1 P2Q", "screen value": "0.000644 average fractional NGS count over selection days 2 and 3 (reads of this peptide / all reads for the bait, averaged over …"}, {"variant": "chain 1 P2V", "screen value": "0.00125 average fractional NGS count over selection days 2 and 3 (reads of this peptide / all reads for the bait, averaged over …"}, {"variant": "chain 1 P2S", "screen value": "0.000402 average fractional NGS count over selection days 2 and 3 (reads of this peptide / all reads for the bait, averaged over …"}, {"variant": "chain 1 P2F", "screen value": "0.00201 average fractional NGS count over selection days 2 and 3 (reads of this peptide / all reads for the bait, averaged over …"}, {"variant": "chain 1 P2I", "screen value": "0.000822 average fractional NGS count over selection days 2 and 3 (reads of this peptide / all reads for the bait, averaged over …"}, {"variant": "chain 1 P2N", "screen value": "0.000461 average fractional NGS count over selection days 2 and 3 (reads of this peptide / all reads for the bait, averaged over …"}, {"variant": "chain 1 P2G", "screen value": "0.000225 average fractional NGS count over selection days 2 and 3 (reads of this peptide / all reads for the bait, averaged over …"}, {"variant": "chain 1 P8K", "screen value": "0.000693 average fractional NGS count over selection days 2 and 3 (reads of this peptide / all reads for the bait, averaged over …"}, {"variant": "chain 1 P8Y", "screen value": "0.000667 average fractional NGS count over selection days 2 and 3 (reads of this peptide / all reads for the bait, averaged over …"}, {"variant": "chain 1 P8E", "screen value": "0.00169 average fractional NGS count over selection days 2 and 3 (reads of this peptide / all reads for the bait, averaged over …"}, {"variant": "chain 1 P8M", "screen value": "0.00437 average fractional NGS count over selection days 2 and 3 (reads of this peptide / all reads for the bait, averaged over …"}, {"variant": "chain 1 P8A", "screen value": "0.00935 average fractional NGS count over selection days 2 and 3 (reads of this peptide / all reads for the bait, averaged over …"}, {"variant": "chain 1 P8L", "screen value": "0.00187 average fractional NGS count over selection days 2 and 3 (reads of this peptide / all reads for the bait, averaged over …"}, {"variant": "chain 1 P8I", "screen value": "0.00231 average fractional NGS count over selection days 2 and 3 (reads of this peptide / all reads for the bait, averaged over …"}, {"variant": "chain 1 P8Q", "screen value": "0.00268 average fractional NGS count over selection days 2 and 3 (reads of this peptide / all reads for the bait, averaged over …"}, {"variant": "chain 1 Q12H", "screen value": "0.0118 average fractional NGS count over selection days 2 and 3 (reads of this peptide / all reads for the bait, averaged over …"}, {"variant": "chain 1 Q12K", "screen value": "0.000431 average fractional NGS count over selection days 2 and 3 (reads of this peptide / all reads for the bait, averaged over …"}, {"variant": "chain 1 Q12L", "screen value": "0.00741 average fractional NGS count over selection days 2 and 3 (reads of this peptide / all reads for the bait, averaged over …"}, {"variant": "chain 1 Q12N", "screen value": "0.00115 average fractional NGS count over selection days 2 and 3 (reads of this peptide / all reads for the bait, averaged over …"}, {"variant": "chain 1 Q12Y", "screen value": "0.000794 average fractional NGS count over selection days 2 and 3 (reads of this peptide / all reads for the bait, averaged over …"}, {"variant": "chain 1 Q12A", "screen value": "0.00503 average fractional NGS count over selection days 2 and 3 (reads of this peptide / all reads for the bait, averaged over …"}, {"variant": "chain 1 Q12I", "screen value": "0.000382 average fractional NGS count over selection days 2 and 3 (reads of this peptide / all reads for the bait, averaged over …"}, {"variant": "chain 1 S13D", "screen value": "0.00033 average fractional NGS count over selection days 2 and 3 (reads of this peptide / all reads for the bait, averaged over …"}, {"variant": "chain 1 S13Q", "screen value": "0.00224 average fractional NGS count over selection days 2 and 3 (reads of this peptide / all reads for the bait, averaged over …"}, {"variant": "chain 1 S13T", "screen value": "0.00243 average fractional NGS count over selection days 2 and 3 (reads of this peptide / all reads for the bait, averaged over …"}, {"variant": "chain 1 S13G", "screen value": "0.00038 average fractional NGS count over selection days 2 and 3 (reads of this peptide / all reads for the bait, averaged over …"}, {"variant": "chain 1 S13Y", "screen value": "0.00204 average fractional NGS count over selection days 2 and 3 (reads of this peptide / all reads for the bait, averaged over …"}, {"variant": "chain 1 S13L", "screen value": "0.00144 average fractional NGS count over selection days 2 and 3 (reads of this peptide / all reads for the bait, averaged over …"}, {"variant": "chain 1 S13M", "screen value": "0.00197 average fractional NGS count over selection days 2 and 3 (reads of this peptide / all reads for the bait, averaged over …"}, {"variant": "chain 1 P9G", "screen value": "0.000695 average fractional NGS count over selection days 2 and 3 (reads of this peptide / all reads for the bait, averaged over …"}, {"variant": "chain 1 Q5V", "screen value": "0.001 average fractional NGS count over selection days 2 and 3 (reads of this peptide / all reads for the bait, averaged over …"}, {"variant": "chain 1 Q5S", "screen value": "0.000417 average fractional NGS count over selection days 2 and 3 (reads of this peptide / all reads for the bait, averaged over …"}, {"variant": "chain 1 Q5P", "screen value": "0.000217 average fractional NGS count over selection days 2 and 3 (reads of this peptide / all reads for the bait, averaged over …"}, {"variant": "chain 1 Q5E", "screen value": "0.000543 average fractional NGS count over selection days 2 and 3 (reads of this peptide / all reads for the bait, averaged over …"}, {"variant": "chain 1 Q5D", "screen value": "0.00109 average fractional NGS count over selection days 2 and 3 (reads of this peptide / all reads for the bait, averaged over …"}, {"variant": "chain 1 Q5K", "screen value": "0.0003 average fractional NGS count over selection days 2 and 3 (reads of this peptide / all reads for the bait, averaged over …"}, {"variant": "chain 1 L4D", "screen value": "0.00145 average fractional NGS count over selection days 2 and 3 (reads of this peptide / all reads for the bait, averaged over …"}, {"variant": "chain 1 L4E", "screen value": "0.00039 average fractional NGS count over selection days 2 and 3 (reads of this peptide / all reads for the bait, averaged over …"}, {"variant": "chain 1 L4A", "screen value": "0.00506 average fractional NGS count over selection days 2 and 3 (reads of this peptide / all reads for the bait, averaged over …"}, {"variant": "chain 1 H3G", "screen value": "0.000244 average fractional NGS count over selection days 2 and 3 (reads of this peptide / all reads for the bait, averaged over …"}, {"variant": "chain 1 H3L", "screen value": "0.000556 average fractional NGS count over selection days 2 and 3 (reads of this peptide / all reads for the bait, averaged over …"}, {"variant": "chain 1 H3E", "screen value": "0.000323 average fractional NGS count over selection days 2 and 3 (reads of this peptide / all reads for the bait, averaged over …"}, {"variant": "chain 1 H3P", "screen value": "0.000298 average fractional NGS count over selection days 2 and 3 (reads of this peptide / all reads for the bait, averaged over …"}, {"variant": "chain 1 H3Y", "screen value": "0.00044 average fractional NGS count over selection days 2 and 3 (reads of this peptide / all reads for the bait, averaged over …"}, {"variant": "chain 1 H3A", "screen value": "0.000153 average fractional NGS count over selection days 2 and 3 (reads of this peptide / all reads for the bait, averaged over …"}, {"variant": "chain 1 H3T", "screen value": "0.000309 average fractional NGS count over selection days 2 and 3 (reads of this peptide / all reads for the bait, averaged over …"}, {"variant": "chain 1 F14Y", "screen value": "0.00865 average fractional NGS count over selection days 2 and 3 (reads of this peptide / all reads for the bait, averaged over …"}, {"variant": "chain 1 F14P", "screen value": "0.000325 average fractional NGS count over selection days 2 and 3 (reads of this peptide / all reads for the bait, averaged over …"}, {"variant": "chain 1 F14V", "screen value": "0.000585 average fractional NGS count over selection days 2 and 3 (reads of this peptide / all reads for the bait, averaged over …"}, {"variant": "chain 1 F14W", "screen value": "0.00225 average fractional NGS count over selection days 2 and 3 (reads of this peptide / all reads for the bait, averaged over …"}]}, {"variants_of": "B2", "assay": "proteomic peptide phage display deep mutational scan (ProP-PD DMS): M13 P8 16-mer library selected against immobilised GST-tagged bait for four days (rounds), NGS of the eluted pools per day and pseudo-replica; bait immobilised on MaxiSorp plates (10 µg), library pre-cleared on GST, 2 h binding at 4 °C, five washes; one round per day, days 1-4; value from days 2 and 3", "values": [{"variant": "chain 1 E11V", "screen value": "0.000234 average fractional NGS count over selection days 2 and 3 (reads of this peptide / all reads for the bait, averaged over …"}, {"variant": "chain 1 E11A", "screen value": "0.000236 average fractional NGS count over selection days 2 and 3 (reads of this peptide / all reads for the bait, averaged over …"}, {"variant": "chain 1 E11S", "screen value": "0.000584 average fractional NGS count over selection days 2 and 3 (reads of this peptide / all reads for the bait, averaged over …"}, {"variant": "chain 1 E11Q", "screen value": "0.00516 average fractional NGS count over selection days 2 and 3 (reads of this peptide / all reads for the bait, averaged over …"}, {"variant": "chain 1 E11Y", "screen value": "0.000271 average fractional NGS count over selection days 2 and 3 (reads of this peptide / all reads for the bait, averaged over …"}]}]}
